Experimental data: publication PMC7954794, “Protein context shapes the specificity of SH3 domain-mediated interactions in vivo” (Nature Communications, 2021)

B1: Abp1 WT (protein, UniProt P15891 2-592, looked up)
Actin-binding protein: ALEPIDYTTHSREIDAEYLKIVRGSDPDTTWLIISPNAKKEYEPESTGSSFHDFLQLFDETKVQYGLARVSPPGSDVEKIIIIGWCPDSAPLKTRASFAANFAAVANNLFKGYHVQVTARDEDDLDENELLMKISNAAGARYSIQTSSKQQGKASTPPVKKSFTPSKSPAPVSKKEPVKTPSPAPAAKISSRVNDNNDDDDWNEPELKERDFDQAPLKPNQSSYKPIGKIDLQKVIAEEKAKEDPRLVQKPTAAGSKIDPSSDIANLKNESKLKRDSEFNSFLGTTKPPSMTESSLKNDDDKVIKGFRNEKSPAQLWAERKAKQNSGNAETKAEAPKPEVPEDEPEGEPDVKDLKSKFEGLAASEKEEEEMENKFAPPPKKSEPTIISPKPFSKPQEPVKAEEAEQPKTDYKKIGNPLPGMHIEADNEEEPEENDDDWDDDEDEAAQPPLPSRNVASGAPVQKEEPEQEEIAPSLPSRNSIPAPKQEEAPEQAPEEEIEEEAEEAAPQLPSRSSAAPPPPPRRATPEKKPKENPWATAEYDYDAAEDNELTFVENDKIINIEFVDDDWWLGELEKDGSKGLFPSNYVSLGN
B2: Bem1 WT (protein, UniProt P29366 1-551, looked up)
Bud emergence protein 1: MLKNFKLSKRDSNGSKGRITSADISTPSHDNGSVIKHIKTVPVRYLSSSSTPVKSQRDSSPKNRHNSKDITSPEKVIKAKYSYQAQTSKELSFMEGEFFYVSGDEKDWYKASNPSTGKEGVVPKTYFEVFDRTKPSSVNGSNSSSRKVTNDSLNMGSLYAIVLYDFKAEKADELTTYVGENLFICAHHNCEWFIAKPIGRLGGPGLVPVGFVSIIDIATGYATGNDVIEDIKSVNLPTVQEWKSNIARYKASNISLGSVEQQQQQSITKPQNKSAKLVDGELLVKASVESFGLEDEKYWFLVCCELSNGKTRQLKRYYQDFYDLQVQLLDAFPAEAGKLRDAGGQWSKRIMPYIPGPVPYVTNSITKKRKEDLNIYVADLVNLPDYISRSEMVHSLFVVLNNGFDREFERDENQNNIKTLQENDTATFATASQTSNFASTNQDNTLTGEDLKLNKKLSDLSLSGSKQAPAQSTSGLKTTKIKFYYKDDIFALMLKGDTTYKELRSKIAPRIDTDNFKLQTKLFDGSGEEIKTDSQVSNIIQAKLKISVHDI
B3: Sla1 WT (protein, UniProt P32790 1-1244, looked up)
Actin cytoskeleton-regulatory …: MTVFLGIYRAVYAYEPQTPEELAIQEDDLLYLLQKSDIDDWWTVKKRVIGSDSEEPVGLVPSTYIEEAPVLKKVRAIYDYEQVQNADEELTFHENDVFDVFDDKDADWLLVKSTVSNEFGFIPGNYVEPENGSTSKQEQAPAAAEAPAATPAAAPASAAVLPTNFLPPPQHNDRARMMQSKEDQAPDEDEEGPPPAMPARPTATTETTDATAAAVRSRTRLSYSDNDNDDEEDDYYYNSNSNNVGNHEYNTEYHSWNVTEIEGRKKKKAKLSIGNNKINFIPQKGTPHEWSIDKLVSYDNEKKHMFLEFVDPYRSLELHTGNTTTCEEIMNIIGEYKGASRDPGLREVEMASKSKKRGIVQYDFMAESQDELTIKSGDKVYILDDKKSKDWWMCQLVDSGKSGLVPAQFIEPVRDKKHTESTASGIIKSIKKNFTKSPSRSRSRSRSKSNANASWKDDELQNDVVGSAAGKRSRKSSLSSHKKNSSATKDFPNPKKSRLWVDRSGTFKVDAEFIGCAKGKIHLHKANGVKIAVAADKLSNEDLAYVEKITGFSLEKFKANDGSSSRGTDSRDSERERRRRLKEQEEKERDRRLKERELYELKKARELLDEERSRLQEKELPPIKPPRPTSTTSVPNTTSVPPAESSNNNNSSNKYDWFEFFLNCGVDVSNCQRYTINFDREQLTEDMMPDINNSMLRTLGLREGDIVRVMKHLDKKFGRENIASIPTNATGNMFSQPDGSLNVATSPETSLPQQLLPQTTSPAQTAPSTSAETDDAWTVKPASKSESNLLSKKSEFTGSMQDLLDLQPLEPKKAAASTPEPNLKDLEPVKTGGTTVPAAPVSSAPVSSAPAPLDPFKTGGNNILPLSTGFVMMPMITGGDMLPMQRTGGFVVPQTTFGMQSQVTGGILPVQKTGNGLIPISNTGGAMMPQTTFGAAATVLPLQKTGGGLIPIATTGGAQFPQTSFNVQGQQQLPTGSILPVQKTANGLISANTGVSMPTVQRTGGTMIPQTSFGVSQQLTGGAMMTQPQNTGSAMMPQTSFNAVPQITGGAMMPQTSFNALPQVTGGAMMPLQRTGGALNTFNTGGAMIPQTSFSSQAQNTGGFRPQSQFGLTLQKTGGIAPLNQNQFTGGAMNTLSTGGVLQQQQPQTMNTFNTGGVMQELQMMTTFNTGGAMQQPQMMNTFNTDGIMQQPQMMNTFNTGGAMQQPQQQALQNQPTGFGFGNGPQQSRQANIFNATASNPFGF
B4: Bzz1 WT (protein, UniProt P38822 1-633, looked up)
Protein BZZ1: MSADLSIGNEIKDSFKETHKWVQNNLKWLKDIEQFYRERAKLEKDYSERLSRLSAEYFNKKSSTSVPISVGDTPTTTPGSIEAAGVVAWNEILSQTDMISKDHDQLSTDFENHVANQLSGLFTKLDMTLSKINGFNNDMVNKKDNIYHELEKAKKDYDEACSTMEMARNRYTKASNDRNKKKLDEKEMEMNKCKNEYLIKINQANRTKDKYYFQDVPEVLDLLQDVNEAKTLFLNDLWLKAASVENDLGANVSKRLQAANSVVKQNKPSLNTAIFIKHNLKNWKEPQDFVYKPSPVWHDDEKFAVPSSLEVEDLRIKLAKAENDYNSLQDKTQNELSKLSTLNKIKHEMKTNEDNINATKFYDTLKEYLNVVSPFTSHETLKLQAEVQIESIQNNVPEEYDLSTDNIDLSKTKKKSGIFSKFKHNILNVDSKPSSGGSTGNGNGGPLHITSLFNTSRRTRLGSAPNNAGEDSDNNSIRTTSTNNTKKTTQNSSDDGKNKVLYAYVQKDDDEITITPGDKISLVARDTGSGWTKINNDTTGETGLVPTTYIRISSAATVKANDRGPAPEVPPPRRSTLPVRTMEAIYAYEAQGDDEISIDPGDIITVIRGDDGSGWTYGECDGLKGLFPTSYCK

Test system: SH3-deleted bait proteins (1xFLAG)
Assay: Western blot expression level of SH3-deleted baits (Fig. S1F-G)
Format: cell-based, Saccharomyces cerevisiae
Conditions: Western blot Flag signal, 1xFLAG-tagged WT or SH3-deleted bait; sheet FigS1F-G
Experimental: Precultures of yeast cells expressing baits fused with the DHFR F[1,2]-FLAG were grown overnight at 30 °C with agitation in synthetic complete medium. The next day, cells were expanded in synthetic complete medium to reach their exponential phase (OD600 of around 1.0), pelleted, and frozen at −80 °C. The equivalent of fifty OD600 of cells was resuspended in ice-cold yeast lysis buffer (10 mM Tris-HCl pH 7.4, 150 mM NaCl, 0.5 mM EDTA (Millipore Sigma), 1% Triton X-100 (Millipore Sigma), and one cOmplete Mini Protease Inhibitor Cocktail (Millipore Sigma) per 10 mL) with […] glass beads (Millipore Sigma) and disrupted at 4 °C by 10 cycles of 2 min vortexing and 2 min cooldown. The equivalent of […] of lysed cells was used for the immunoprecipitation of the bait proteins using FLAG-M2 agarose beads (Millipore Sigma). The beads were incubated with the cell lysates for 120 min at 4 °C with a slow rotation, followed by three washes with the yeast lysis buffer.
Protein extracts and affinity-purified baits from yeast and human lysed cells were migrated on 10% polyacrylamide gels. The separated proteins were then transferred to nitrocellulose membranes. Validation of correct protein loading was done with ponceau staining of the membranes. Before the primary antibody incubations, membranes were blocked in 5% milk. Protein signals were detected on an Amersham Imager 600RGB (GE Healthcare) following the incubation of the membranes with the appropriate HRP-conjugated secondary antibodies and the Clarity Western ECL Substrate (Bio-Rad). The antibodies used in this study are M2-HRP (A8592, Sigma, 1/50,000), rabbit anti-FLAG (F7425, Sigma, 1/1000), PAK (SC-881, Santa Cruz, 1/200), p130cas/BCAR1 (SC-860, Santa Cruz, 1/200), actin (Cell Signaling Technology, 1/2000), anti-mouse HRP (Cell Signaling Technology, 1/10,000) and anti-rabbit HRP (Cell Signaling Technology, 1/10,000). The quantification of the WB signals was performed with the Amersham Imager 600 analysis software (GE Healthcare).

First: B1
Second: B2
The Flag of the first is lower: 9263 for the first, 104455 for the second.

Compared with B3, B4 is higher in Flag: 58812 for the first, 215050 for the second.
